Data taken from article PMC2756588.

T1: Hof1, Q05080
T1 sequence (Q05080 590-669, looked up): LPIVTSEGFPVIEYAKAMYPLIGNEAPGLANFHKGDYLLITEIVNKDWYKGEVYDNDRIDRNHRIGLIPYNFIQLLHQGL

T2: Nbp2, Q12163
T2 sequence (Q12163 103-180, looked up): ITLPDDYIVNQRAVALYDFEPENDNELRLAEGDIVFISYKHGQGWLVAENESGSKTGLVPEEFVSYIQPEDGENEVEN

T3: Abp1, P15891
T3 sequence (P15891 535-592, looked up): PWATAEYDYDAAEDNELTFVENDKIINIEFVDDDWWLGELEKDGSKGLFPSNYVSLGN

T4: Lsb1, P53281
T4 sequence (P53281 45-122, looked up): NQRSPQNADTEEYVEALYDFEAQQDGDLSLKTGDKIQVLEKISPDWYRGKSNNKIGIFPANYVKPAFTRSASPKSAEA

T5: Lsb3, P43603
T5 sequence (P43603 385-451, looked up): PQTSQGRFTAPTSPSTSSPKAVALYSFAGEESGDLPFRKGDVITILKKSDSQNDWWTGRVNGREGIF

T6: Lsb4, P32793
T6 sequence (P32793 402-468, looked up): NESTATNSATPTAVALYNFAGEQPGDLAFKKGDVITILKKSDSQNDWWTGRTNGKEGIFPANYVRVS

T7: Myo5, Q04439
T7 sequence (Q04439 1072-1160, looked up): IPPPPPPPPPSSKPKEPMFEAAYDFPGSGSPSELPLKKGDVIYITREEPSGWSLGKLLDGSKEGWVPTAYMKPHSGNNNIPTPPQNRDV

T8: Bud14, P27637
T8 sequence (P27637 247-328, looked up): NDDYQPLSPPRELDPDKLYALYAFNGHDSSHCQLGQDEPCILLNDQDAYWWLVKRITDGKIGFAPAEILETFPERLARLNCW

T9: Boi1, P38041
T9 sequence (P38041 1-86, looked up): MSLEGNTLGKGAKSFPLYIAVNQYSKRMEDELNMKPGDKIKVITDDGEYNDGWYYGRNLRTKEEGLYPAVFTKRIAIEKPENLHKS

T10: Sla1-3, P32790
T10 sequence (P32790 344-424, looked up): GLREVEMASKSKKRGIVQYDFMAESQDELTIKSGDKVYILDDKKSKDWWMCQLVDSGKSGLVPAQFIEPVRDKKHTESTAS

T11: Bzz1-1, P38822
T11 sequence (P38822 478-572, looked up): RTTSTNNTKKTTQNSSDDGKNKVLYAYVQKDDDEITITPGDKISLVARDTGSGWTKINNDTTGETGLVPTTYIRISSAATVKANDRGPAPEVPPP

T12: Pex13, P80667
T12 sequence (P80667 295-386, looked up): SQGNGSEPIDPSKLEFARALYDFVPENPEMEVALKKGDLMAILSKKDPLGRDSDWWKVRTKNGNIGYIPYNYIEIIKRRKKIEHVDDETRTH

T13: Boi2, P39969
T13 sequence (P39969 32-116, looked up): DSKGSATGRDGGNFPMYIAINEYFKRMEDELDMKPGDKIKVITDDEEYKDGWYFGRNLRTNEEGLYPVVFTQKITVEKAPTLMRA

T14: Hse1, P38753
T14 sequence (P38753 208-285, looked up): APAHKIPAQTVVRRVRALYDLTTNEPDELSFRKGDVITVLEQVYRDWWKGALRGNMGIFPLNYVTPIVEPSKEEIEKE

T15: Pin3, Q06449
T15 sequence (Q06449 53-122, looked up): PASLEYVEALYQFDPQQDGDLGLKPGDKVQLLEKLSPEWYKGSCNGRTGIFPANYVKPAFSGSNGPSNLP

T16: Fus1, P11710
T16 sequence (P11710 432-512, looked up): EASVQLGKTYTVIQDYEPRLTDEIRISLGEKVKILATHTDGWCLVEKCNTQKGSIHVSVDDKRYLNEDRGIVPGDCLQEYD

T17: Sla1-2, P32790
T17 sequence (P32790 60-140, looked up): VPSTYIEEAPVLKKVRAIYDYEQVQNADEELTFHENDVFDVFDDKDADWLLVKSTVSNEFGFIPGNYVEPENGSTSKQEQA

T18: Bzz1-2, P38822
T18 sequence (P38822 568-633, looked up): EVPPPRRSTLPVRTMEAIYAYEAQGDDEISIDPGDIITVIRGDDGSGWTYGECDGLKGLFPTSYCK

T19: Bbc1, P47068
T19 sequence (P47068 1-78, looked up): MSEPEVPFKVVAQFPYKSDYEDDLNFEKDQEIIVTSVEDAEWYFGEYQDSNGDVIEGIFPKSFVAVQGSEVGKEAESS

T20: Cyk3, Q07533
T20 sequence (Q07533 1-83, looked up): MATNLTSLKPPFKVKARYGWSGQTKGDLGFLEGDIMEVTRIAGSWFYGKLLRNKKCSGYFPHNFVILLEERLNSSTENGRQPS

T21: Cdc25, P04821
T21 sequence (P04821 50-136, looked up): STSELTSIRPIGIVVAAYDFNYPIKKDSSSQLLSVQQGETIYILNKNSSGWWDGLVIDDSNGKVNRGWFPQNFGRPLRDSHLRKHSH


The binders below were run against T1, Hof1, Q05080 (assay: SPOT array). Details: median of control spots 4086.

SPOT intensity | Binder
6 | RKNRAPPQRPRFNRE
0 | APKREAPKPPANTSP
89 | RLSRLLLSLPPESFT

The binders below were run against T2, Nbp2, Q12163 (assay: SPOT array). Details: median of control spots 357.

SPOT intensity | Binder
240 | RKNRAPPQRPRFNRE
139 | APKREAPKPPANTSP
42 | RLSRLLLSLPPESFT

The binders below were run against T3, Abp1, P15891 (assay: SPOT array). Details: median of control spots 935.

SPOT intensity | Binder
235 | RKNRAPPQRPRFNRE
9 | APKREAPKPPANTSP
57 | RLSRLLLSLPPESFT

These binders were tested against T4, Lsb1, P53281 (assay: SPOT array). Details: median of control spots 388.

SPOT intensity | Binder
390 | RKNRAPPQRPRFNRE
0 | APKREAPKPPANTSP
6 | RLSRLLLSLPPESFT

What follows are binders tested against T5, Lsb3, P43603 (assay: SPOT array). Details: median of control spots 406.

SPOT intensity | Binder
30 | RKNRAPPQRPRFNRE
0 | APKREAPKPPANTSP
0 | RLSRLLLSLPPESFT

These binders were tested against T6, Lsb4, P32793 (assay: SPOT array). Details: median of control spots 397.

SPOT intensity | Binder
49 | RKNRAPPQRPRFNRE
1 | APKREAPKPPANTSP
3 | RLSRLLLSLPPESFT

The binders below were run against GST (assay: SPOT array). Details: median of control spots 978.

SPOT intensity | Binder
4 | RKNRAPPQRPRFNRE
0 | APKREAPKPPANTSP
0 | RLSRLLLSLPPESFT

The binders below were run against T7, Myo5, Q04439 (assay: SPOT array). Details: median of control spots 471.

SPOT intensity | Binder
5 | RKNRAPPQRPRFNRE
126 | APKREAPKPPANTSP
0 | RLSRLLLSLPPESFT

The binders below were run against T8, Bud14, P27637 (assay: SPOT array). Details: median of control spots 956.

SPOT intensity | Binder
15 | RKNRAPPQRPRFNRE
0 | APKREAPKPPANTSP
50 | RLSRLLLSLPPESFT

Each binder was assayed against T9, Boi1, P38041 (assay: SPOT array). Details: median of control spots 1162.

SPOT intensity | Binder
8 | RKNRAPPQRPRFNRE
0 | APKREAPKPPANTSP
7 | RLSRLLLSLPPESFT

What follows are binders tested against T10, Sla1-3, P32790 (assay: SPOT array). Details: median of control spots 5475.

SPOT intensity | Binder
379 | RKNRAPPQRPRFNRE
12 | APKREAPKPPANTSP
45 | RLSRLLLSLPPESFT

These binders were tested against T11, Bzz1-1, P38822 (assay: SPOT array). Details: median of control spots 4446.

SPOT intensity | Binder
8 | RKNRAPPQRPRFNRE
10 | APKREAPKPPANTSP
0 | RLSRLLLSLPPESFT

These binders were tested against T12, Pex13, P80667 (assay: SPOT array). Details: median of control spots 1341.

SPOT intensity | Binder
14 | RKNRAPPQRPRFNRE
7 | APKREAPKPPANTSP
19 | RLSRLLLSLPPESFT

What follows are binders tested against T13, Boi2, P39969 (assay: SPOT array). Details: median of control spots 1161.

SPOT intensity | Binder
3 | RKNRAPPQRPRFNRE
0 | APKREAPKPPANTSP
2 | RLSRLLLSLPPESFT

Each binder was assayed against T14, Hse1, P38753 (assay: SPOT array). Details: median of control spots 1727.

SPOT intensity | Binder
25 | RKNRAPPQRPRFNRE
0 | APKREAPKPPANTSP
59 | RLSRLLLSLPPESFT

The binders below were run against T15, Pin3, Q06449 (assay: SPOT array). Details: median of control spots 2171.

SPOT intensity | Binder
12 | RKNRAPPQRPRFNRE
2 | APKREAPKPPANTSP
27 | RLSRLLLSLPPESFT

Each binder was assayed against T16, Fus1, P11710 (assay: SPOT array). Details: median of control spots 1200.

SPOT intensity | Binder
14 | RKNRAPPQRPRFNRE
0 | APKREAPKPPANTSP
81 | RLSRLLLSLPPESFT

What follows are binders tested against T17, Sla1-2, P32790 (assay: SPOT array). Details: median of control spots 712.

SPOT intensity | Binder
4 | RKNRAPPQRPRFNRE
0 | APKREAPKPPANTSP
0 | RLSRLLLSLPPESFT

Each binder was assayed against T18, Bzz1-2, P38822 (assay: SPOT array). Details: median of control spots 4538.

SPOT intensity | Binder
77 | RKNRAPPQRPRFNRE
0 | APKREAPKPPANTSP
4 | RLSRLLLSLPPESFT

What follows are binders tested against Bem1-1, P29366 (assay: SPOT array). Details: median of control spots 4282.
Bem1-1, P29366, sequence (P29366 55-141): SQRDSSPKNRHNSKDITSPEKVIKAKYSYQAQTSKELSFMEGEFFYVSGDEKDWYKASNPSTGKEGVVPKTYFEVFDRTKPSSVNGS

SPOT intensity | Binder
0 | RKNRAPPQRPRFNRE
0 | APKREAPKPPANTSP
0 | RLSRLLLSLPPESFT

These binders were tested against Sho1, P40073 (assay: SPOT array). Details: median of control spots 1148.
Sho1, P40073, sequence (P40073 287-367): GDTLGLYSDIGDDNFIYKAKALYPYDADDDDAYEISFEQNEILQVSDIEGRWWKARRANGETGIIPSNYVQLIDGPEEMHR

SPOT intensity | Binder
178 | RKNRAPPQRPRFNRE
0 | APKREAPKPPANTSP
66 | RLSRLLLSLPPESFT

What follows are binders tested against Rvs167, P39743 (assay: SPOT array). Details: median of control spots 2707.
Rvs167, P39743, sequence (P39743 419-482): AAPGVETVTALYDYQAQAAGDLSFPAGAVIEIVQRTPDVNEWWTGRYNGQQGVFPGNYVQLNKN

SPOT intensity | Binder
4 | RKNRAPPQRPRFNRE
0 | APKREAPKPPANTSP
0 | RLSRLLLSLPPESFT

The binders below were run against T19, Bbc1, P47068 (assay: SPOT array). Details: median of control spots 796.

SPOT intensity | Binder
362 | RKNRAPPQRPRFNRE
56 | APKREAPKPPANTSP
47 | RLSRLLLSLPPESFT

Each binder was assayed against T20, Cyk3, Q07533 (assay: SPOT array). Details: median of control spots 1451.

SPOT intensity | Binder
4 | RKNRAPPQRPRFNRE
0 | APKREAPKPPANTSP
2 | RLSRLLLSLPPESFT

What follows are binders tested against T21, Cdc25, P04821 (assay: SPOT array). Details: median of control spots 969.

SPOT intensity | Binder
30 | RKNRAPPQRPRFNRE
3 | APKREAPKPPANTSP
172 | RLSRLLLSLPPESFT

Each binder was assayed against Bem1-2, P29366 (assay: SPOT array). Details: median of control spots 4347.
Bem1-2, P29366, sequence (P29366 139-227): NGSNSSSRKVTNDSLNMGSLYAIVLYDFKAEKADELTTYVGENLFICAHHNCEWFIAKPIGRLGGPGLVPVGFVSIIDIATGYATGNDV

SPOT intensity | Binder
65 | RKNRAPPQRPRFNRE
0 | APKREAPKPPANTSP
11 | RLSRLLLSLPPESFT

The binders below were run against Myo3, P36006 (assay: SPOT array). Details: median of control spots 468.

SPOT intensity | Binder
51 | RKNRAPPQRPRFNRE
277 | APKREAPKPPANTSP
10 | RLSRLLLSLPPESFT
